Experimental data from patent US10287569B2, “Enzyme for biosynthesis of isoprene and isopentenyl, and mutant thereof” (INSTITUTE OF MICROBIOLOGY, CHINESE ACADEMY OF SCIENCES, priority 2016, dated 2019).

T1: alkaliphilic Bacillus sp. N16-5 IspH protein, wild type, SEQ ID NO: 2 (Salipaludibacillus agaradhaerens, UniProt A0A9Q4B1R3)
T1 sequence (A0A9Q4B1R3 1-318): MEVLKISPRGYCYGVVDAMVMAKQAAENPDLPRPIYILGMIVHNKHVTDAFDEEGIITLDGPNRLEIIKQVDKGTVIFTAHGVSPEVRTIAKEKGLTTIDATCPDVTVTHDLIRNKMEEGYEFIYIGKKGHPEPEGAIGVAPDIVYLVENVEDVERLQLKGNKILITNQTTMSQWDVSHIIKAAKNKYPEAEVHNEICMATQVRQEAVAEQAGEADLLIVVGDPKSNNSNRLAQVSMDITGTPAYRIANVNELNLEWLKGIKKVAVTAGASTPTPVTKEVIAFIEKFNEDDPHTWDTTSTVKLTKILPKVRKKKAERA


Tests used:
[1] = biological target: T1, alkaliphilic Bacillus sp. N16-5 IspH protein, wild type, SEQ ID NO: 2; assay: Kinetic parameters of the enzymatic reaction converting DMAPP to isoamylene by wild-type IspH protein; format: biochemical; settings: DMAPP as substrate to produce isoamylene; DMAPP 0-1.0 mM; pH 7.8, 37° C., 1 mM NADPH, ferredoxin/ferredoxin-NADP+ reductase, anaerobic
Method: Under anaerobic conditions, in a sealed 5 ml chromatotube, IspH protein and its mutants were determined for their activity, wherein the reaction system comprised: 150 mM NaCl, 20 mM Tris-HCl (pH 7.8), 2 mM DTT, 1 mM NADPH, 1 mM DMAPP, 20 μM ferredoxin, 5 μM ferredoxin-NADP^+ reductase, and 0.5 μM IspH protein or its mutants (H131N and E133Q) obtained above; the total reaction volume was 500 μl; and the reaction condition was incubation at 37° C. for 1 h.

[2] = tested on: plant-derived isoprene synthase (IspS; EC 4.2.3.27); settings: DMAPP as substrate to produce isoprene; background art; cited from earlier work
[3] = In vitro activity assay using HMBPP as a substrate (headspace gas GC-MS); format: biochemical; settings: for Production of 2-methyl-2-butene or not / Production of 3-methyl-1-butene or not / Isoprene produced in the reaction system: 1 mM HMBPP, 0.5 μM protein, 37° C. 1 h, headspace gas; for Isoprene produced in the reaction system: ferredoxin, FNR, NADPH, anaerobic
Method: (§1) Under anaerobic conditions, in a sealed 5 ml chromatotube, IspH protein and its mutants were determined for their activity, wherein the reaction system comprised: 150 mM NaCl, 20 mM Tris-HCl (pH 7.8), 2 mM DTT, 1 mM NADPH, 1 mM HMBPP, 20 μM ferredoxin, 5 μM ferredoxin-NADP^+ reductase, and 0.5 μM IspH protein or its mutants (H131N and E133Q) obtained above; the total reaction volume was 500 μl; and the reaction condition was incubation at 37° C. for 1 h.
After the reaction, the headspace gas in the chromatotube was collected, and was subjected to gas chromatography-mass spectrometry (GC-MS). In brief, the gas was analyzed by Agilent Technologies 7890B GG/5977A MSD equipped with Agilent HP-PLOT Al2O3/S GC column (25 m, 0.32 mm, 8.00 μm, 7 inch cage), wherein He gas was used as a carrier gas at a flow rate of 2 ml/min. Later, the experimental data of the test sample (peak retention time, peak area, mass spectrogram, etc.) was compared with the experimental data of the standard substance (isoprene, 3-methyl-1-butene and 2-methyl-2-butene) to identify the gas components and perform quantitative analysis.

[4] = Acid treatment of the reaction solution to determine DMAPP (isoprene in headspace gas by GC-MS); format: biochemical; settings: reaction solution of the HMBPP assay, 8M H2SO4, 37° C. 30 min; indicates DMAPP
Method: as §1
In addition, after the reaction, the reaction solution in the chromatotube was also analyzed to determine whether IPP and DMAPP were produced. Since DMAPP can spontaneously produce isoprene under acidic conditions, the amount of DMAPP in the reaction solution can be determined by determining the amount of isoprene produced in the reaction solution under acidic conditions. In brief, under anaerobic conditions, 50 μL reaction solution was put in another 5 ml chromatotube, and diluted with cold water to a volume of 500 μL, and an equal volume of 8M H2SO4 was added; then, the chromatotube was sealed immediately, and incubated at 37° C. for 30 min. After the incubation, the amount of isoprene in the headspace gas was determined by the above-mentioned GC-MS method, to determine whether the reaction solution contained DMAPP or not.

[5] = In vitro activity assay using DMAPP as a substrate (headspace gas GC-MS, kinetic parameters); format: biochemical; settings: 1 mM DMAPP, 0.5 μM protein, 37° C. 1 h
Method: as §1, with “DMAPP,” for “HMBPP,”
After the reaction, the headspace gas in the chromatotube was collected, and was subjected to gas chromatography-mass spectrometry (GC-MS).
In order to determine the kinetic parameters of the wild-type IspH protein, DMAPP at different concentrations (0, 0.1, 0.2, 0.3, 0.4, 0.5, 1.0 mM) was used to repeat the experiment.

[6] = In vitro activity assay using IPP as a substrate; format: biochemical
Method: as §1, with “DMAPP,” for “HMBPP,”
In addition, IPP was used as a substrate to repeat the experiment.

| Molecule | maximum reaction activity [1] | Km value [2] | Production of 2-methyl-2-butene or not [3] | Production of 3-methyl-1-butene or not [3] | Isoprene produced in the reaction system [3] | activity of converting HMBPP to isoamylene directly ([3]; headspace gas in different phases of the HMBPP assay) | products formed from HMBPP as a substrate (isoprene, isoamylene, IPP, DMAPP) ([3]; summary of the HMBPP assay) | isoprene produced by treating the reaction solution with acid [4] | conversion of DMAPP to isoamylene (2-methyl-2-butene and 3-methyl-1-butene) [5] | catalytic activity on IPP [6] |
| --- | --- | --- | --- | --- | --- | --- | --- | --- | --- | --- |
| CC(C)=CCOP(=O)(O)OP(=O)(O)O [DMAPP, dimethylallyl pyrophosphate] | about 6.2 nmol min^−1 mg^−1 | reaches the level of mM |  |  |  |  |  |  |  |  |
| wild-type IspH: IspH protein from alkaliphilic Bacillus sp. N16-5, amino acid sequence SEQ ID NO: 2 (protein, Bacillus sp. N16-5) MEVLKISPRGYCYGVVDAMVMAKQAAENPDLPRPIYILGMIVHNKHVTDAFDEEGIITLDGPNRLEIIKQVDKGTVIFTAHGVSPEVRTIAKEKGLTTIDATCPDVTVTHDLIRNKMEEGYEFIYIGKKGHPEPEGAIGVAPDIVYLVENVEDVERLQLKGNKILITNQTTMSQWDVSHIIKAAKNKYPEAEVHNEICMATQVRQEAVAEQAGEADLLIVVGDPKSNNSNRLAQVSMDITGTPAYRIANVNELNLEWLKGIKKVAVTAGASTPTPVTKEVIAFIEKFNEDDPHTWDTTSTVKLTKILPKVRKKKAERA |  |  | yes | yes | 104.4 μg L^−1 OD^−1 | does not have the activity of converting HMBPP to isoamylene directly | can use HMBPP as a substrate to produce isoprene, isoamylene, IPP and DMAPP | 696.3 μg L^−1 OD^−1 | produce isoamylene | none |
| IspH-E133Q: IspH mutant, glutamic acid to glutamine at position 133 of SEQ ID NO: 2 (SEQ ID NO: 4) (protein, Mutant protein E133Q) MEVLKISPRGYCYGVVDAMVMAKQAAENPDLPRPIYILGMIVHNKHVTDAFDEEGIITLDGPNRLEIIKQVDKGTVIFTAHGVSPEVRTIAKEKGLTTIDATCPDVTVTHDLIRNKMEEGYEFIYIGKKGHPQPEGAIGVAPDIVYLVENVEDVERLQLKGNKILITNQTTMSQWDVSHIIKAAKNKYPEAEVHNEICMATQVRQEAVAEQAGEADLLIVVGDPKSNNSNRLAQVSMDITGTPAYRIANVNELNLEWLKGIKKVAVTAGASTPTPVTKEVIAFIEKFNEDDPHTWDTTSTVKLTKILPKVRKKKAERA |  |  | no | no | 106.4 μg L^−1 OD^−1 |  |  | 6.1 μg L^−1 OD^−1 |  |  |
